Paper PMC9357037

Biological target: TEMPOL-122-αS (N122C α-synuclein spin-labelled at position 122) (UniProt P37840)
Assay: CW-EPR titration (site-directed spin labelling); apparent; TEMPOL-122-αS kept at 50 μM, poly-cation titrated at increasing molar ratios; LLPS buffer without crowder (no PEG); 25 °C; band III/band II amplitude fitted to an approximate model with n identical and independent binding sites

Kd: 5 µM
Substance: poly-L-lysine of 100 residues (peptide)
